Where “and” joins values, the source holds several entries; their conditions need not be identical. Equal entries are not always repeated.
Legend:
[1] = molecular target: bacteriophage λN peptide fused to the N-terminus of β-EGFP (bacteriophage λ; Aequorea victoria) [GFP: P42212]; test: cell-based or functional assay
[2] = molecular target: β-fragment of EGFP (betaCys-fragment, 159-234 aa) biotinylated, tagged with streptavidin and a biotinylated 21-nt oligonucleotide (Aequorea victoria) [GFP: P42212]; test: cell-based or functional assay

Row | Substance | average fluorescence over background (no RNA component), 0.01 mM IPTG [1] | signal/background ratio at reduced IPTG [1] | t½ of fluorescence increase upon mixing [2] [min]
1 | α-EGFP fused at its C-terminus to HTLV-1 Rex peptide (from UniProt P42212 1-158) | 10 fold and 15 fold | 10 fold and 20 fold | –
2 | α-fragment of EGFP (alphaCys-fragment, 1-158) biotinylated, tagged with streptavidin and a biotinylated 21-nt oligonucleotide (from UniProt P42212 1-158; P22629 37-163) | – | – | 1.67

Reference: US20090029370A1
